The target in assay [1] is HLA-A2 alone (recombinant human HLA-A2:Ig fusion protein, DimerX I, without added peptide) (human). Nature of the assay: flow cytometry of CAR-T cells incubated with biotinylated HLA-A2, then streptavidin-APC; 82.9% GFP+ APC- (lower right); untransduced T cells: 0.02% in the upper right quadrant. In general terms: A flow cytometer gives signals particle by particle.
The target of assay [2] is AIQ-HLA-A2 complex (… peptide loaded on recombinant human HLA-A2:Ig fusion protein, DimerX I) (human). In words: flow cytometry of CAR-T cells incubated with biotinylated AIQ-HLA-A2, then streptavidin-APC; 82.4% GFP+ APC- (lower right); untransduced T cells: 0.00% in the upper right quadrant.
The target in assay [3] is SLL-HLA-A2 complex (NY-ESO-1 peptide … loaded on recombinant human HLA-A2:Ig fusion protein, DimerX I) (human). In words: flow cytometry of CAR-T cells incubated with biotinylated SLL-HLA-A2, then streptavidin-APC; 82.6% GFP+ APC- (lower right); untransduced T cells: 0.04% in the upper right quadrant.

Regarding “CD19 CAR expressed on human CD8+ T cells”, the % of cells in the upper right quadrant (GFP+ / streptavidin-APC+) in assay [1] turned out to be 0.13%; in assay [2], 0.17%; in assay [3], 0.03%.

Source of the values: patent US20210283178A1.
